Experiments:
Assay in all cases: cell_activity
[1] = tested on: ZFN 32398 (synthetic construct); conditions: pair 32401/32398, DLSSA reporter in Neuro2A; pVAX control 0.16
[2] = tested on: ZFN 9940 (synthetic construct); conditions: pair 12897/9940 with donor, CF iPS cells; 21 of 64 clones; scale: % puroR clones with targeted insertion
[3] = tested on: ZFN 32366 (synthetic construct); conditions: pair 32365/32366, K562 cells
[4] = tested on: ZFN 12897 (synthetic construct); conditions: pair 12897/9940 with donor, CF iPS cells; 21 of 64 clones; scale: % puroR clones with targeted insertion
[5] = tested on: ZFN 32365 (synthetic construct); conditions: pair 32365/32366, K562 cells
[6] = tested on: ZFN 32376 (synthetic construct); conditions: pair 32375/32376, K562 cells
[7] = tested on: ZFN 32401 (synthetic construct); conditions: pair 32401/32398, DLSSA reporter in Neuro2A; pVAX control 0.16
[8] = tested on: ZFN 32375 (synthetic construct); conditions: pair 32375/32376, K562 cells

“ACACCAATGATATTTTCTTTAATGGTGC (double strand) [32398 target site]” gave an activity (firefly/renilla ratio) [1] of 1.45.
For “AGTGATTATGGGAGAACTGGATGTTCACAGTCAGTCCACACGTC (double strand) [9940 target site]”, the activity [2] was 33.
Work on “ATATAGATACAGAAGCGTCATCAAAGCA (double strand) [32366 target site]” yielded an activity [3] of 9 % indels.
“ATTAGAAGTGAAGTCTGGAAATAAAACC (double strand) [12897 target site]” showed an activity [4] of 33.
“CATCATAGGAAACACCAAAGATGATATT (double strand) [32365 target site]” gave an activity [5] of 9 % indels.
With “CCAACTAGAAGAGGTAAGAAACTATGTG (double strand) [32376 target site]” the activity [6] was 12 % indels.
“CCTATGATGAATATAGATACAGAAGCGT (double strand) [32401 target site]” gave an activity (firefly/renilla ratio) [7] of 1.45.
Work on “GCTTTGATGACGCTTCTGTATCTATATT (double strand) [32375 target site]” yielded an activity [8] of 12 % indels.

— US20130145485
